Measured values as given in patent US12503518B2, “Heparanase-neutralizing A54 monoclonal antibody” (TECHNION RESEARCH & DEVELOPMENT FOUNDATION LIMITED, priority 2020, dated 2025).

Assays:
[1] = tested on: Luc-CAG human myeloma cells; assay: CAG myeloma tumor growth in NOD/SCID mice, IVIS imaging; type: in vivo; conditions: 500 μg/mouse, 3 times/week from day 3; evaluated 3 weeks later; vs PBS; P=0.02
Protocol: CAG myeloma. Luciferase-labeled CAG human myeloma cells (5×10^6) are injected into the tail vein of NOD/SCID mice. Three days after cell inoculation, mice are randomly assigned to 2 cohorts (5-10 mice each) receiving (a) vehicle (PBS); and (b) A54 mAb (500 μg/mouse, 3 times/week). Tumor development is inspected (once a week) by IVIS imaging following administration of luciferin (see below). At termination, mice are sacrificed the backbones are excised, fixed in formalin and following de-calcification with 10% EDTA solution are embedded in paraffin and subjected to histological and immunohistochemical analyses.
IVIS imaging. […] Imaging is performed in real time, is non-invasive and provides quantitative data. […] Light emitted from the bioluminescent cells is detected by the IVIS camera system with images quantified for tumor burden using a log-scale color range set at 5×10^4 to 1×10^7 and measurement of total photon counts per second (PPS) using Living Image software (Xenogen).
The ability of mAb A54 to attenuate myeloma tumor development over time was examined. […] Tumor growth was evaluated 3 weeks later by IVIS imaging (FIGS. 5A and 5B). Quantification of luciferase signals is also shown graphically (FIG. 5C). […]

U87 glioma cells = assay: Matrigel invasion assay; type: cell-based, human; conditions: antibody 2 g, 6 h, vs control mouse IgG; p=0.001; FIG. 4C
Protocol: Matrigel invasion assay. Invasion assay was performed using modified Boyden chambers with polycarbonate Nucleopore membrane, essentially as described (Arvatz et al. 2011, ibid.). Briefly, filters (6.5 mm in diameter, 8 μm pore-size) were coated with Matrigel (30 μl); Cells (2×10^5) in 100 μl of serum-free medium were seeded in triplicate on the upper part of each chamber in the presence of the indicated antibody, and the lower compartment was filled with 600 μl medium supplemented with 10% FCS. After incubation for 5 h at 37° C. in a 5% CO2 incubator, non-invading cells on the upper surface of the filter were wiped with a cotton swab, and migrated cells on the lower surface of the filter were fixed, stained with 0.5% crystal violet (Sigma) and counted by examination of at least seven microscopic fields (Barash et al., J Natl Cancer Inst. 110:1102-1114, 2018).
Thereafter, the antibody effect on cell invasion was examined. Briefly, U87 glioma cells (1×10^5) were plated onto Matrigel-coated 8-μm Transwell filters in the presence of control mouse IgG or mAb A54 ([…]). Invading cells adhering to the lower side of the membrane were visualized after 6 h (FIGS. 4A-B) and quantified (FIG. 4C; number of invading cells per high power field; *p=0.001) as described in ‘Methods’.

B1: mAb A54: heparanase-neutralizing murine monoclonal antibody, IgG1-Kappa; VH SEQ ID NO: 7, VL SEQ ID NO: 8; binds HBD-II of heparanase (antibody, listed as Mus musculus, V domains shown)
VH: QVQLQQSGAELAKPGASVRMSCKASGYTFTNYWMHWVKQRPGQGLEWIGYINPTTGYTEYNQKFKDKATLTADKSSSTAYMQLSSLTSEDSAVYYCARGGAGYDYDEDYAMDYWGQGTSVTVSS
VL: DIVLTQSPASLAVSLGQRATISCRASESVEYFGTSYMNWYQQKPGQPPKLLIYLASILESGIPARFSGSGSGTDFTLNIHPVEEEDAATYYCQQSNEDPYTFGGGTKLEIK
[1]
  myeloma growth rate (IVIS luciferase signal): marked reduction in the myeloma growth rate
U87 glioma cells
  attenuation of invasion of U87 glioma cells through Matrigel: ~90%
